B1: KCNG1 (parent)
chain: AVNLSVSTLPSLREEEEQVRAHAP

Variants of: B1
Experiment: protein stability index of a GFP-peptide fusion (GPS, HEK-293T) (PSI 1-6); higher = more stable
Conditions: c terminus: a fixed tail appended
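Further: lentivirally expressed fusions sorted by FACS into six bins by GFP to DsRed ratio, PSI derived from sequencing read proportions per bin multiplied by bin number.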

Variant	protein stability index
AVNLSVSLLPSLREEEEQVRAHAP [T8L]	4.55
AVNLSVSMLPSLREEEEQVRAHAP [T8M]	4.53
AVNLSVSNLPSLREEEEQVRAHAP [T8N]	5.14
AVNLSVSPLPSLREEEEQVRAHAP [T8P]	5.14
AVNLSVSQLPSLREEEEQVRAHAP [T8Q]	5.07
AVNLSVSRLPSLREEEEQVRAHAP [T8R]	4.94
AVNLSVSSLPSLREEEEQVRAHAP [T8S]	4.82
AVNLSVSVLPSLREEEEQVRAHAP [T8V]	4.45
AVNLSVSWLPSLREEEEQVRAHAP [T8W]	3.11
AVNLSVSYLPSLREEEEQVRAHAP [T8Y]	4.19
AVNLSVSTAPSLREEEEQVRAHAP [L9A]	5.36
AVNLSVSTCPSLREEEEQVRAHAP [L9C]	4.66
AVNLSVSTDPSLREEEEQVRAHAP [L9D]	5.49
AVNLSVSTEPSLREEEEQVRAHAP [L9E]	4.67
AVNLSVSTFPSLREEEEQVRAHAP [L9F]	5.08
AVNLSVSTGPSLREEEEQVRAHAP [L9G]	4.83
AVNLSVSTHPSLREEEEQVRAHAP [L9H]	4.81
AVNLSVSTIPSLREEEEQVRAHAP [L9I]	4.14
AVNLSVSTKPSLREEEEQVRAHAP [L9K]	5.19
AVNLSVSTMPSLREEEEQVRAHAP [L9M]	4.63
AVNLSVSTNPSLREEEEQVRAHAP [L9N]	5.42
AVNLSVSTPPSLREEEEQVRAHAP [L9P]	5.26
AVNLSVSTQPSLREEEEQVRAHAP [L9Q]	4.88
AVNLSVSTRPSLREEEEQVRAHAP [L9R]	5.28

Variant	protein stability index
AVNLSVSTSPSLREEEEQVRAHAP [L9S]	5.09
AVNLSVSTTPSLREEEEQVRAHAP [L9T]	5.08
AVNLSVSTVPSLREEEEQVRAHAP [L9V]	4.73
AVNLSVSTWPSLREEEEQVRAHAP [L9W]	3.81
AVNLSVSTYPSLREEEEQVRAHAP [L9Y]	4.47
AVNLSVSTLASLREEEEQVRAHAP [P10A]	4.59
AVNLSVSTLCSLREEEEQVRAHAP [P10C]	4.35
AVNLSVSTLDSLREEEEQVRAHAP [P10D]	5.06
AVNLSVSTLESLREEEEQVRAHAP [P10E]	5.04
AVNLSVSTLFSLREEEEQVRAHAP [P10F]	3.5
AVNLSVSTLGSLREEEEQVRAHAP [P10G]	4.71
AVNLSVSTLHSLREEEEQVRAHAP [P10H]	4.63
AVNLSVSTLISLREEEEQVRAHAP [P10I]	3.67
AVNLSVSTLKSLREEEEQVRAHAP [P10K]	4.74
AVNLSVSTLLSLREEEEQVRAHAP [P10L]	4.06
AVNLSVSTLMSLREEEEQVRAHAP [P10M]	4.28
AVNLSVSTLNSLREEEEQVRAHAP [P10N]	4.7
AVNLSVSTLQSLREEEEQVRAHAP [P10Q]	5.05
AVNLSVSTLRSLREEEEQVRAHAP [P10R]	4.29
AVNLSVSTLSSLREEEEQVRAHAP [P10S]	4.62
AVNLSVSTLTSLREEEEQVRAHAP [P10T]	4.49
AVNLSVSTLVSLREEEEQVRAHAP [P10V]	4.61
AVNLSVSTLWSLREEEEQVRAHAP [P10W]	4.05
AVNLSVSTLYSLREEEEQVRAHAP [P10Y]	4.03

Variant	protein stability index
AVNLSVSTLPALREEEEQVRAHAP [S11A]	5.43
AVNLSVSTLPCLREEEEQVRAHAP [S11C]	4.3
AVNLSVSTLPDLREEEEQVRAHAP [S11D]	5.02
AVNLSVSTLPELREEEEQVRAHAP [S11E]	5.14
AVNLSVSTLPFLREEEEQVRAHAP [S11F]	4.45
AVNLSVSTLPGLREEEEQVRAHAP [S11G]	3.95
AVNLSVSTLPHLREEEEQVRAHAP [S11H]	5.07
AVNLSVSTLPILREEEEQVRAHAP [S11I]	4.79
AVNLSVSTLPKLREEEEQVRAHAP [S11K]	5.13
AVNLSVSTLPLLREEEEQVRAHAP [S11L]	4.75
AVNLSVSTLPMLREEEEQVRAHAP [S11M]	4.54
AVNLSVSTLPNLREEEEQVRAHAP [S11N]	4.95
AVNLSVSTLPPLREEEEQVRAHAP [S11P]	4.93
AVNLSVSTLPQLREEEEQVRAHAP [S11Q]	5.01
AVNLSVSTLPRLREEEEQVRAHAP [S11R]	4.88
AVNLSVSTLPTLREEEEQVRAHAP [S11T]	4.84
AVNLSVSTLPVLREEEEQVRAHAP [S11V]	4.83
AVNLSVSTLPWLREEEEQVRAHAP [S11W]	4.35
AVNLSVSTLPYLREEEEQVRAHAP [S11Y]	4.54
AVNLSVSTLPSAREEEEQVRAHAP [L12A]	5
AVNLSVSTLPSCREEEEQVRAHAP [L12C]	4.42
AVNLSVSTLPSDREEEEQVRAHAP [L12D]	5.41
AVNLSVSTLPSEREEEEQVRAHAP [L12E]	5.62
AVNLSVSTLPSFREEEEQVRAHAP [L12F]	4.59

Variant	protein stability index
AVNLSVSTLPSGREEEEQVRAHAP [L12G]	5.21
AVNLSVSTLPSHREEEEQVRAHAP [L12H]	5.17
AVNLSVSTLPSIREEEEQVRAHAP [L12I]	4.79
AVNLSVSTLPSKREEEEQVRAHAP [L12K]	4.67
AVNLSVSTLPSMREEEEQVRAHAP [L12M]	4.88
AVNLSVSTLPSNREEEEQVRAHAP [L12N]	5.11
AVNLSVSTLPSPREEEEQVRAHAP [L12P]	5.13
AVNLSVSTLPSQREEEEQVRAHAP [L12Q]	5.19
AVNLSVSTLPSRREEEEQVRAHAP [L12R]	5.35
AVNLSVSTLPSSREEEEQVRAHAP [L12S]	5.33
AVNLSVSTLPSTREEEEQVRAHAP [L12T]	5.38
AVNLSVSTLPSVREEEEQVRAHAP [L12V]	4.81
AVNLSVSTLPSWREEEEQVRAHAP [L12W]	4.13
AVNLSVSTLPSYREEEEQVRAHAP [L12Y]	4.77
AVNLSVSTLPSLAEEEEQVRAHAP [R13A]	5
AVNLSVSTLPSLCEEEEQVRAHAP [R13C]	4.99
AVNLSVSTLPSLDEEEEQVRAHAP [R13D]	5.15
AVNLSVSTLPSLEEEEEQVRAHAP [R13E]	5.25
AVNLSVSTLPSLFEEEEQVRAHAP [R13F]	4.78
AVNLSVSTLPSLGEEEEQVRAHAP [R13G]	4.55
AVNLSVSTLPSLHEEEEQVRAHAP [R13H]	4.99
AVNLSVSTLPSLIEEEEQVRAHAP [R13I]	4.68

Source: the supplement of paper PMC10567573
